Results published in article PMC1635313.

Biological target: T1, CRP (cAMP receptor protein, CAP) (Escherichia coli) (UniProt P0ACJ8)
T1 sequence: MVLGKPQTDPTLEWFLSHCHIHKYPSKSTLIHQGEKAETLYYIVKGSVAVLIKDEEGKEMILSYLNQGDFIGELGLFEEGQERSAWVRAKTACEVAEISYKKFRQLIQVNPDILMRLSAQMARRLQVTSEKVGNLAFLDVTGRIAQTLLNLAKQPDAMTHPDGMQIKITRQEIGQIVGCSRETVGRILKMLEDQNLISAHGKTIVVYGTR
Assay: EMSA

Sequence	binding
CCAGGTTTCCCAGCACTTTTAATCTGGCGGTTAATGCGACTCCGGCATCCGGTGAAACATCCGGTAAAGGATGCAATACGCCGTCGATACGCAAGCGGATGCGGTAGGC (double strand) [hofB coding fragment]	no binding
GCACGACAGGTTTCCCGACTGGAAAGCGGGCAGTGAGCGCAACGCAATTAATGTGAGTTAGCTCACTCATTAGGCACCCCAGGCTTTACACTTTATGCTTCCGGCTCGTATGTTGTGTGGAATTGTG (double strand) [lacZ promoter fragment]	binds
